Consider 13 molecules from patent US20210040184A1.

Experiment [1] deals with Clade B BaL gp120 protein (HIV-1 Clade B, BaL). Put plainly: BLI (Octet), IgG on anti-hIgG Fc sensor, gp120 analyte, 1:1 fit.
The target of experiment [2] is Clade C DU172.17 gp120 protein (HIV-1 Clade C, DU172.17). The experiment is described as above.
In experiment [3] the target is Clade B BaL gp120 protein (HIV-1 Clade B, BaL). Put plainly: BLI (Octet), IgG on anti-hIgG Fc sensor, gp120 analyte, 1:1 fit; average of 4 runs.
For experiment [4], the target named is Clade C DU172.17 gp120 protein (HIV-1 Clade C, DU172.17). Described as above.

B1: Germ6 (antibody, V domains shown)
VH: ADLVQSGAVVKKPGDSVRVSCEAQGYRFPDYIIHWIRRAPGQGPEWMGWMNPMGGQVNIPWKFQGRVSMTRDTSIETAYLDLRGLKSDDTAVYYCVRDRSNGSGKRFESSNWFLDLWGRGTAVTVQS
VL: QSALTQPRSVSGSPGQSVTISCTGTHNLVSWCQHQPGRAPKLLIYDFNKRPSGVPDRFSGSGSGGTASLTISGLQDEDDAEYFCWAYEAFGGGTKLTVL
Take B1: in experiment [1], the Kd stood at 0.92 nM, the fold (KD vs average of 4 runs of L1A2) was determined as 1.7 fold, the off-rate (koff) is 7.11e-05 s⁻¹ and the kon turned out to be 77100 M⁻¹ s⁻¹. In experiment [2], the Kd is 19.3 nM, the fold (KD vs average of 4 runs of L1A2) was determined as 0.76 fold, the off-rate constant (koff) stood at 0.000466 s⁻¹ and the kon came out at 24100 M⁻¹ s⁻¹.

B2: Germ12 (antibody, V domains shown)
VH: QVDLVQSGAVVKKPGDSVRVSCEAQGYRFPDYIIHWIRRAPGQGPEWMGWMNPMGGQVNIPWKFQGRVSMTRDTSIETAYMDLRGLRSDDTAVYYCVRDRSNGSGKRFESSNWFLDLWGRGTLVTVSS
VL: QSALTQPRSVSGSPGQSVTISCTGTHNLVSWCQHQPGRAPKLLIYDFNKRPSGVPDRFSGSGSGGTASLTISGLQDEDDAEYFCWAYEAFGGGTKLTVL
Consider B2, for which, in experiment [1], the Kd was 0.88 nM, the fold (KD vs average of 4 runs of L1A2) was 1.62 fold, the dissociation rate constant (koff) came to 7.09e-05 s⁻¹ and the kon worked out at 80800 M⁻¹ s⁻¹. In addition, in experiment [2], the dissociation constant (Kd) worked out at 21.5 nM, the fold (KD vs average of 4 runs of L1A2) was found to be 0.85 fold, the koff came out at 0.000438 s⁻¹ and the kon came out at 20400 M⁻¹ s⁻¹.

B3: NglycoND (antibody, V domains shown)
VH: ADLVQSGAVVKKPGDSVRISCEAQGYRFPDYIIHWIRRAPGQGPEWMGWMNPMGGQVNIPWKFQGRVSMTRDTSIETAFLDLRGLKSDDTAVYYCVRDRSDGSGKRFESSNWFLDLWGRGTAVTIQS
VL: QSALTQPRSVSASPGQSVTISCTGTHNLVSWCQHQPGRAPKLLIYDFNKRPSGVPDRFSGSGSGGTASLTITGLQDDDDAEYFCWAYEAFGGGTKLTVL
Take B3: in experiment [1], the Kd came out at 18.7 nM, the fold (KD vs average of 4 runs of L1A2) was 34.5 fold, the koff turned out to be 0.00128 s⁻¹ and the on-rate (kon) stood at 68400 M⁻¹ s⁻¹. In addition, in experiment [2], the Kd worked out at 368 nM, the fold (KD vs average of 4 runs of L1A2) came out at 14.5 fold, the koff is 0.0183 s⁻¹ and the kon was 49700 M⁻¹ s⁻¹.

B4: NVS49-L1A2 (antibody, V domains shown)
VH: ADLVQSGAVVKKPGDSVRISCEAQGYRFPDYIIHWIRRAPGQGPEWMGWMNPMGGQVNIPWKFQGRVSMTRDTSIETAFLDLRGLKSDDTAVYYCVRDRSNGSGKRFESSNWFLDLWGRGTAVTIQS
VL: QSALTQPRSVSASPGQSVTISCTGTHNLVSWCQHQPGRAPKLLIYDFNKRPSGVPDRFSGSGSGGTASLTITGLQDDDDAEYFCWAYEAFGGGTKLTVL
As for B4, in experiment [3], the Kd amounted to 0.54 nM, the fold (KD vs average of 4 runs of L1A2) was found to be 1 fold, the koff worked out at 4.41e-05 s⁻¹ and the kon is 81300 M⁻¹ s⁻¹. Moreover, in experiment [4], the Kd is 25.4 nM, the fold (KD vs average of 4 runs of L1A2) turned out to be 1 fold, the koff came to 0.000526 s⁻¹ and the kon was 21100 M⁻¹ s⁻¹.

B5: NglycoNDplus6 (antibody, V domains shown)
VH: ADLVQSGAVVKKPGDSVRISCEAQGYTFPDYIIHWIRRAPGQGPEWMGWMNPMGGQVNIPWKFQGRVSMTRDTSIETAFLDLRGLKSDDTAVYYCVRDRGDGSRRHFDSSNWFLDLWGRGTAVTIQS
VL: QSALTQPRSVSASPGQSVTISCTGTHNLVSWCQHQPGRAPKLLIYDFNKRPSGVPDRFSGSGSGGTASLTITGLQDDDDAEYFCWAYEAFGGGTKLTVL
On to B5, for which, in experiment [1], the Kd stood at 11.3 nM, the fold (KD vs average of 4 runs of L1A2) worked out at 20.9 fold, the koff worked out at 0.0006 s⁻¹ and the kon stood at 53300 M⁻¹ s⁻¹.

B6: Germ12_NglycoSA_CysCA (antibody, V domains shown)
VH: QVDLVQSGAVVKKPGDSVRVSCEAQGYRFPDYIIHWIRRAPGQGPEWMGWMNPMGGQVNIPWKFQGRVSMTRDTSIETAYMDLRGLRSDDTAVYYCVRDRSNGAGKRFESSNWFLDLWGRGTLVTVSS
VL: QSALTQPRSVSGSPGQSVTISCTGTHNLVSWAQHQPGRAPKLLIYDFNKRPSGVPDRFSGSGSGGTASLTISGLQDEDDAEYFCWAYEAFGGGTKLTVL
Turning to B6, in experiment [1], the Kd is 0.63 nM, the fold (KD vs average of 4 runs of L1A2) was 1.16 fold, the koff worked out at 4.92e-05 s⁻¹ and the kon was determined as 78300 M⁻¹ s⁻¹. Further, in experiment [2], the Kd came to 18.1 nM, the fold (KD vs average of 4 runs of L1A2) turned out to be 0.71 fold, the koff stood at 0.000337 s⁻¹ and the kon was found to be 18600 M⁻¹ s⁻¹.

B7: CysCV (antibody, V domains shown)
VH: ADLVQSGAVVKKPGDSVRISCEAQGYRFPDYIIHWIRRAPGQGPEWMGWMNPMGGQVNIPWKFQGRVSMTRDTSIETAFLDLRGLKSDDTAVYYCVRDRSNGSGKRFESSNWFLDLWGRGTAVTIQS
VL: QSALTQPRSVSASPGQSVTISCTGTHNLVSWVQHQPGRAPKLLIYDFNKRPSGVPDRFSGSGSGGTASLTITGLQDDDDAEYFCWAYEAFGGGTKLTVL
As for B7, in experiment [1], the Kd turned out to be 0.82 nM, the fold (KD vs average of 4 runs of L1A2) amounted to 1.52 fold, the koff came to 6.4e-05 s⁻¹ and the kon was 77900 M⁻¹ s⁻¹. Further, in experiment [2], the Kd was found to be 26.7 nM, the fold (KD vs average of 4 runs of L1A2) came to 1.05 fold, the off-rate (koff) is 0.000495 s⁻¹ and the on-rate (kon) came to 18500 M⁻¹ s⁻¹.

B8: Germ23 (antibody, V domains shown)
VH: QVQLVQSGAEVKKPGASVKVSCEASGYRFPDYIIHWIRRAPGQGPEWMGWMNPMGGQVNIPWKFQGRVSMTRDTSIETAYMELRGLRSDDTAVYYCVRDRSNGSGKRFESSNWFLDLWGRGTLVTVSS
VL: QSALTQPRSVSGSPGQSVTISCTGTHNLVSWCQHHPGKAPKLMIYDFNKRPSGVPDRFSGSGSGGTASLTISGLQAEDEAEYFCWAYEAFGGGTKLTVL
For the molecule B8, in experiment [1], the Kd worked out at 0.97 nM, the fold (KD vs average of 4 runs of L1A2) came out at 1.79 fold, the koff was 7.66e-05 s⁻¹ and the kon was 79100 M⁻¹ s⁻¹. Also, in experiment [2], the Kd turned out to be 22.4 nM, the fold (KD vs average of 4 runs of L1A2) came out at 0.88 fold, the koff is 0.000368 s⁻¹ and the kon was 16400 M⁻¹ s⁻¹.

B9: NglycoSA (antibody, V domains shown)
VH: ADLVQSGAVVKKPGDSVRISCEAQGYRFPDYIIHWIRRAPGQGPEWMGWMNPMGGQVNIPWKFQGRVSMTRDTSIETAFLDLRGLKSDDTAVYYCVRDRSNGAGKRFESSNWFLDLWGRGTAVTIQS
VL: QSALTQPRSVSASPGQSVTISCTGTHNLVSWCQHQPGRAPKLLIYDFNKRPSGVPDRFSGSGSGGTASLTITGLQDDDDAEYFCWAYEAFGGGTKLTVL
In the case of B9, in experiment [1], the Kd turned out to be 0.84 nM, the fold (KD vs average of 4 runs of L1A2) came out at 1.54 fold, the koff was determined as 6.12e-05 s⁻¹ and the kon came to 73300 M⁻¹ s⁻¹. Besides, in experiment [2], the Kd was determined as 18.4 nM, the fold (KD vs average of 4 runs of L1A2) came to 0.72 fold, the koff is 0.000303 s⁻¹ and the kon is 16500 M⁻¹ s⁻¹.

B10: Germ18 (antibody, V domains shown)
VH: QVQLVQSGAEVKKPGASVKVSCEASGYRFPDYIIHWIRRAPGQGPEWMGWMNPMGGQVNIPWKFQGRVSMTRDTSIETAYMELRGLRSDDTAVYYCVRDRSNGSGKRFESSNWFLDLWGRGTLVTVSS
VL: QSALTQPRSVSGSPGQSVTISCTGTHNLVSWCQHQPGRAPKLLIYDFNKRPSGVPDRFSGSGSGGTASLTISGLQDEDDAEYFCWAYEAFGGGTKLTVL
With B10, in experiment [1], the dissociation constant Kd stood at 0.98 nM, the fold (KD vs average of 4 runs of L1A2) turned out to be 1.81 fold, the koff turned out to be 7.09e-05 s⁻¹ and the kon worked out at 72200 M⁻¹ s⁻¹. In experiment [2], the Kd turned out to be 21.3 nM, the fold (KD vs average of 4 runs of L1A2) was 0.84 fold, the koff was 0.000415 s⁻¹ and the kon was 19500 M⁻¹ s⁻¹.

B11: CysCA (antibody, V domains shown)
VH: ADLVQSGAVVKKPGDSVRISCEAQGYRFPDYIIHWIRRAPGQGPEWMGWMNPMGGQVNIPWKFQGRVSMTRDTSIETAFLDLRGLKSDDTAVYYCVRDRSNGSGKRFESSNWFLDLWGRGTAVTIQS
VL: QSALTQPRSVSASPGQSVTISCTGTHNLVSWAQHQPGRAPKLLIYDFNKRPSGVPDRFSGSGSGGTASLTITGLQDDDDAEYFCWAYEAFGGGTKLTVL
On to B11, for which, in experiment [1], the Kd came out at 1.1 nM, the fold (KD vs average of 4 runs of L1A2) is 2.03 fold, the koff was 8.01e-05 s⁻¹ and the kon was 71900 M⁻¹ s⁻¹. Besides, in experiment [2], the Kd came to 19.6 nM, the fold (KD vs average of 4 runs of L1A2) amounted to 0.77 fold, the koff is 0.000446 s⁻¹ and the kon amounted to 22800 M⁻¹ s⁻¹.

B12: Hydro2 (antibody, V domains shown)
VH: ADLVQSGAVVKKPGDSVRISCEAQGYRFPDYIIHWIRRAPGQGPEWMGWMNPMGGQVNIPQKFQGRVSMTRDTSIETAFLDLRGLKSDDTAVYYCVRDRSNGSGKRFESSNWFLDLWGRGTAVTIQS
VL: QSALTQPRSVSASPGQSVTISCTGTHNLVSWCQHQPGRAPKLLIYDFNKRPSGVPDRFSGSGSGGTASLTITGLQDDDDAEYFCWAYENFGGGTKLTVL
Consider B12, for which, in experiment [1], the Kd is 0.96 nM, the fold (KD vs average of 4 runs of L1A2) was 1.77 fold, the koff was determined as 7.18e-05 s⁻¹ and the kon amounted to 74700 M⁻¹ s⁻¹. Besides, in experiment [2], the dissociation constant Kd turned out to be 55.5 nM, the fold (KD vs average of 4 runs of L1A2) is 2.18 fold, the off-rate (koff) is 0.000974 s⁻¹ and the kon is 17600 M⁻¹ s⁻¹.

B13: Germ17 (antibody, V domains shown)
VH: QVDLVQSGAVVKKPGDSVRVSCEAQGYRFPDYIIHWIRRAPGQGPEWMGWMNPMGGQVNIPWKFQGRVSMTRDTSIETAYMDLRGLRSDDTAVYYCVRDRSNGSGKRFESSNWFLDLWGRGTLVTVSS
VL: QSALTQPRSVSGSPGQSVTISCTGTHNLVSWCQHHPGKAPKLMIYDFNKRPSGVPDRFSGSGSGGTASLTISGLQAEDEAEYFCWAYEAFGGGTKLTVL
As to B13, in experiment [1], the Kd worked out at 0.65 nM, the fold (KD vs average of 4 runs of L1A2) came out at 1.2 fold, the koff came to 5.15e-05 s⁻¹ and the kon was 79300 M⁻¹ s⁻¹. In addition, in experiment [2], the Kd came to 17.5 nM, the fold (KD vs average of 4 runs of L1A2) is 0.69 fold, the off-rate constant (koff) is 0.000331 s⁻¹ and the kon turned out to be 18900 M⁻¹ s⁻¹.
